{"source": "paper PMC4686654", "about": "“A molecular ruler regulates cytoskeletal remodelling by the Rho kinases” (Nature Communications, 2015)", "binders": {"B1": {"name": "RBD fragment of human ROCK2 (977-1,047) (domain or fragment)", "chain": "TLTSDVANLANEKEELNNKLKDVQEQLSRLKDEEISAAAIKAQFEKQLLTERTLKTQAVNKLAEIMNRKEP", "modifications": "none; His6 tag omitted. The limits are read in O75116 numbering: the fragment is said to match the crystal-structure RBD, and ROCK1 947-1015 (RhoBD 949-1015) aligns with O75116 979-1047 (RhoBD), so …"}, "B2": {"name": "human ROCK2 1-408 (kinase domain alone) (domain or fragment)", "chain": "MPGAPETAPGDGAGASRQRKLEALIRDPRSPINVESLLDGLNSLVLDLDFPALRKNKNIDNFLNRYEKIVKKIRGLQMKAEDYDVVKVIGRGAFGEVQLVRHKASQKVYAMKLLSKFEMIKRSDSAFFWEERDIMAFANSPWVVQLFYAFQDDRYLYMVMEYMPGGDLVNLMSNYDVPEKWAKFYTAEVVLALDAIHSMGLIHRDVKPDNMLLDKHGHLKLADFGTCMKMDETGMVHCDTAVGTPDYISPEVLKSQGGDGFYGRECDWWSVGVFLYEMLVGDTPFYADSLVGTYSKIMDHKNSLCFPEDAEISKHAKNLICAFLTDREVRLGRNGVEEIRQHPFFKNDQWHWDNIRETAAPVVPELSSDIDSSNFDDIEDDKGDVETFPIPKAFVGNQLPFIGFTYYR", "modifications": "paper residues 1-408 on the 1,379-residue form = O75116 10-417; activation loop not phosphorylated; constitutive dimer; tag cleaved / paper residues 1-408 on the 1,379-residue form = O75116 10-417 …"}, "B3": {"name": "human ROCK2 (Rho-associated coiled-coil kinase 2), full-length recombinant (enzyme)", "chain": "MPGAPETAPGDGAGASRQRKLEALIRDPRSPINVESLLDGLNSLVLDLDFPALRKNKNIDNFLNRYEKIVKKIRGLQMKAEDYDVVKVIGRGAFGEVQLVRHKASQKVYAMKLLSKFEMIKRSDSAFFWEERDIMAFANSPWVVQLFYAFQDDRYLYMVMEYMPGGDLVNLMSNYDVPEKWAKFYTAEVVLALDAIHSMGLIHRDVKPDNMLLDKHGHLKLADFGTCMKMDETGMVHCDTAVGTPDYISPEVLKSQGGDGFYGRECDWWSVGVFLYEMLVGDTPFYADSLVGTYSKIMDHKNSLCFPEDAEISKHAKNLICAFLTDREVRLGRNGVEEIRQHPFFKNDQWHWDNIRETAAPVVPELSSDIDSSNFDDIEDDKGDVETFPIPKAFVGNQLPFIGFTYYRENLLLSDSPSCRETDSIQSRKNEESQEIQKKLYTLEEHLSNEMQAKEELEQKCKSVNTRLEKTAKELEEEITLRKSVESALRQLEREKALLQHKNAEYQRKADHEADKKRNLENDVNSLKDQLEDLKKRNQNSQISTEKVNQLQRQLDETNALLRTESDTAARLRKTQAESSKQIQQLESNNRDLQDKNCLLETAKLKLEKEFINLQSALESERRDRTHGSEIINDLQGRICGLEEDLKNGKILLAKVELEKRQLQERFTDLEKEKSNMEIDMTYQLKVIQQSLEQEEAEHKATKARLADKNKIYESIEEAKSEAMKEMEKKLLEERTLKQKVENLLLEAEKRCSLLDCDLKQSQQKINELLKQKDVLNEDVRNLTLKIEQETQKRCLTQNDLKMQTQQVNTLKMSEKQLKQENNHLMEMKMNLEKQNAELRKERQDADGQMKELQDQLEAEQYFSTLYKTQVRELKEECEEKTKLGKELQQKKQELQDERDSLAAQLEITLTKADSEQLARSIAEEQYSDLEKEKIMKELEIKEMMARHKQELTEKDATIASLEETNRTLTSDVANLANEKEELNNKLKDVQEQLSRLKDEEISAAAIKAQFEKQLLTERTLKTQAVNKLAEIMNRKEPVKRGNDTDVRRKEKENRKLHMELKSEREKLTQQMIKYQKELNEMQAQIAEESQIRIELQMTLDSKDSDIEQLRSQLQALHIGLDSSSIGSGPGDAEADDGFPESRLEGWLSLPVRNNTKKFGWVKKYVIVSSKKILFYDSEQDKEQSNPYMVLDIDKLFHVRPVTQTDVYRADAKEIPRIFQILYANEGESKKEQEFPVEPVGEKSNYICHKGHEFIPTLYHFPTNCEACMKPLWHMFKPPPALECRRCHIKCHKDHMDKKEEIIAPCKVYYDISTAKNLLLLANSTEEQQKWVSRLVKKIPKKPPAPDPFARSSPRTSMKIQQNQSIRRPSRQLAPNKPS", "modifications": "mono- and diphosphorylated species, two adjacent serines (1,352-1,353)"}, "B4": {"name": "RBD fragment of human ROCK1 (947-1,015) (domain or fragment, UniProt Q13464 947-1015, looked up)", "chain": "MLTKDIEILRRENEELTEKMKKAEEEYKLEKEEEISNLKAAFEKNINTERTLKTQAVNKLAEIMNRKDF", "notes": "also called ROCK1 RBD; source: E. coli BL21 (DE3), purified (NiNTA, Superdex 75)"}}, "key": {"[1]": {"molecular_target": "T1, RBD fragment of human ROCK2 (977-1,047) (human, UniProt O75116 977-1047)", "T1 chain": "B1 chain", "test": "SEC; Superdex 75 in 20 mM Tris pH 7.5, 100 mM NaCl, 1 mM TCEP, 4 mM MgCl2", "conditions": "both partners purified"}, "[2]": {"molecular_target": "human ROCK2 1-408 (kinase domain alone) (human)", "test": "not stated; recombinant catalytic domain in solution", "conditions": "both partners purified"}, "[3]": {"molecular_target": "the molecule itself", "test": "static light scattering; recombinant ROCK2 in solution; mass 327 kDa, polydispersity index 1.000"}, "[4]": {"molecular_target": "the molecule itself", "test": "SEC; Superdex 75 in 20 mM Tris pH 7.5, 100 mM NaCl, 1 mM TCEP, 4 mM MgCl2"}}}
{"binder": "B1", "values": [{"measurement": "stoichiometry N", "setting": "[1]", "value": 2}]}
{"binder": "B2", "values": [{"measurement": "stoichiometry N", "setting": "[2]", "value": 2}]}
{"binder": "B3", "values": [{"measurement": "stoichiometry N", "setting": "[3]", "value": 2}]}
{"binder": "B4", "values": [{"measurement": "stoichiometry N", "setting": "[4]", "value": 2}]}
